Reference: PMC5812274 (Science signaling, 2017)

Biological target: large-conductance Ca2+-activated potassium (BK) channel pore-forming α subunit (rat (endogenous in cerebral artery …, UniProt Q62976 1-1209))
Assay: FRET or BRET

Sequence of large-conductance Ca2+-activated potassium (BK) channel pore-forming α subunit (rat (Q62976 whole entry): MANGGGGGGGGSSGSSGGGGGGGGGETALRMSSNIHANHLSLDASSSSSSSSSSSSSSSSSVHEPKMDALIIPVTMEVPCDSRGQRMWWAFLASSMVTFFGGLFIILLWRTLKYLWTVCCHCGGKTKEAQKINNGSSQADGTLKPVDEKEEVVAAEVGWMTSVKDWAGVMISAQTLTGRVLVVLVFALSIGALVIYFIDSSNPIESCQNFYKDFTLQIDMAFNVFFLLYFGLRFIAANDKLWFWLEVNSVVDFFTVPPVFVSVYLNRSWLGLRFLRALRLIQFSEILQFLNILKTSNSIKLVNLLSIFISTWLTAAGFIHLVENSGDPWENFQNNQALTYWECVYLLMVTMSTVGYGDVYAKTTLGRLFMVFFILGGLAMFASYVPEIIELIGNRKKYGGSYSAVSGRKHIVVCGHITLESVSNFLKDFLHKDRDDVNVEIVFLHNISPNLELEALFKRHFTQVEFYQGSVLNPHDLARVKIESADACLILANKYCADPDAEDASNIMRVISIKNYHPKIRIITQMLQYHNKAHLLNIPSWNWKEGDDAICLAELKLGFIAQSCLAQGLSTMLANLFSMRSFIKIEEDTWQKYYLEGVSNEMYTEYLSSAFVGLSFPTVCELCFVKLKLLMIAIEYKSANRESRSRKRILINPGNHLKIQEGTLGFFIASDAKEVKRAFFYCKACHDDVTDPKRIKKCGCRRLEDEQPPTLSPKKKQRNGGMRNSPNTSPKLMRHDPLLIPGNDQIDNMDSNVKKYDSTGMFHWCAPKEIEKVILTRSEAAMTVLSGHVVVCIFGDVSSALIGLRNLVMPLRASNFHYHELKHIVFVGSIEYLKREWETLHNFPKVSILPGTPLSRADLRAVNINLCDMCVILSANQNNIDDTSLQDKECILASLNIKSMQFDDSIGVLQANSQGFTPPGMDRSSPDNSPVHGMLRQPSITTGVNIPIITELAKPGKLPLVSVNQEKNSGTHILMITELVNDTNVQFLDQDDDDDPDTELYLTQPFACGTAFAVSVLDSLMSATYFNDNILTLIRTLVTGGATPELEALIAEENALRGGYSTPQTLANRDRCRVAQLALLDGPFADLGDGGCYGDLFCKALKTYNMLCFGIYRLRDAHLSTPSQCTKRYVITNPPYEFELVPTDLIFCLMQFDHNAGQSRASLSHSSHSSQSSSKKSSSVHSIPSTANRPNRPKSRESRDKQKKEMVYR

B1: BK channel auxiliary β1 subunit (natural protein, UniProt P97678 1-191, looked up)
chain: MGKKLVMAQKRGETRALCLGVAMVVCAAITYYILGTTVLPLYQKSVWTQESTCHLVETNIKDQEELEGRKVPQYPCLWVNVSAVGRWAMLYHTEDTRDQNQQCSYIPRNLDNYQTALVDVKKVRANFYKHHNFYCFSAPQVNETSVVYQRLYGPQILLFSFFWPTFLLTGGLLIIAMVKLNRSLSVLAAQK
  fold increase of normalized FRET, 60 mM K+ against 6 mM K+: ~3.4 fold
